Source: publication PMC4050190
Values joined by “and” are separate entries in the source; they are usually repeats but may differ in a detail not shown here. Equal values may be shown once.

Molecular target: 6x His-p10 (pRSF duet, first multiple cloning site) (Sesbania mosaic virus)

untagged SeMV RdRp (pRSF duet) (domain or fragment)
in vitro RdRp assay (incorporation of αP32 UTP, filter binding, 2 μg protein, 30 °C, 1 h): activity of the RdRp-p10 complex against RdRp alone: 5 fold and 6 fold
